From paper PMC11708228, “New mutations in the core Schizosaccharomyces pombe spindle pole body scaffold Ppc89 reveal separable functions in regulating cell division” (G3: Genes | Genomes | Genetics, 2024)

Target: T1, GST-Ppc89(545-687) (S. pombe, UniProt Q10218 545-687)
T1 sequence (looked up): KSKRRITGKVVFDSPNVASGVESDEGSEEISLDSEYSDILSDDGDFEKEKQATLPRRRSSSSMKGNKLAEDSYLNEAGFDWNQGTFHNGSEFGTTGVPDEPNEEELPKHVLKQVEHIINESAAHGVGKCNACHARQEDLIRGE
Experiment: pull-down; 10 µg GST-Ppc89 bound to GST beads, blocked with 5% BSA, 10 µg MBP-Sid4 added, 30 min at 4°C in GST-bind buffer (4.3 mM sodium phosphate pH 7.3, 137 mM NaCl, 2.7 mM KCl, 1 mM DTT, 0.1% NP-40); washes up to 300 mM NaCl; SDS-PAGE, Coomassie blue
Settings: both partners purified

B1: MBP-Sid4(546-660) (domain or fragment, S. pombe, UniProt O60187 546-660, looked up)
chain: SQPLTSLNMPDSRFNLAKEKQLYYRLGLQHIDQQCSVETANMLKTVLVQLNIPFAIFPSTIGQVRRQLQQGRRLYQWARNIHYLIYEENMRDGLVSKQCLADMLKKIRELKKRSL
notes: Sid4, S. pombe, 660 aa, residues 546-660 (predicted α-helices 7-11); source: Rosetta2(DE3)pLysS bacteria, purified (amylose resin)
  binding result: binds
